Reference: patent publication US20140308283A1 (TORAY INDUSTRIES, published 2014)
Blank lines part the entries; values can stand above or below the binder they belong to.

Tests used:
[1] = target: T1, CAPRIN-1 protein expressed on the cell membrane surface of human cancer cell lines (human, UniProt Q14444 2-709); assay: cell-based or functional assay
T1 sequence (looked up): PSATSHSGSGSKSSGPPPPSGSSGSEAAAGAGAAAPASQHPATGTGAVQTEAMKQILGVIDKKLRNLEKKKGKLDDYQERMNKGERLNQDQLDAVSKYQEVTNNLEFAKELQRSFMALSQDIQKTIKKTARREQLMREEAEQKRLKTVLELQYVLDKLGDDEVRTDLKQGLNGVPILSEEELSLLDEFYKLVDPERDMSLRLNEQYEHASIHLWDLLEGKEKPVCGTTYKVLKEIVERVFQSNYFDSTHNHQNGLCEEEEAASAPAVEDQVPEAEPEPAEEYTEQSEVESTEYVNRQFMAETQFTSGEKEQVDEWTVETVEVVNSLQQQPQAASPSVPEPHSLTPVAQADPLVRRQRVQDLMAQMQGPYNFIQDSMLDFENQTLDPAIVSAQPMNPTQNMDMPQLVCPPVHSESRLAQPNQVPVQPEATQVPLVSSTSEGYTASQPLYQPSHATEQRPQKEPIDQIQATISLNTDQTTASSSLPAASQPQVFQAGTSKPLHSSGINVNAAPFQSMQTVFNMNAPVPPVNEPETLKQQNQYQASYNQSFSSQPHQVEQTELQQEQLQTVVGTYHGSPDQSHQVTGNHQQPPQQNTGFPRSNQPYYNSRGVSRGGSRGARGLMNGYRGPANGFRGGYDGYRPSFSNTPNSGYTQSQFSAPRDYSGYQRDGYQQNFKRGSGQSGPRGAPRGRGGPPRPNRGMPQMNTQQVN

[2] = target: T2, polypeptide comprising the amino acid sequence of SEQ ID NO: 269 (human); assay: ELISA on immobilised synthetic CAPRIN-1 peptides
T2 peptide: PPVNEPETLKQQNQYQAS
Method: (§1) Then, the solution in each well was discarded, and each well was washed six times with PBST.
(§2) A TMB substrate solution (manufactured by Thermo Fisher Scientific Inc.) was added thereto at a concentration of 100 μl/well and left standing for 15 to 30 minutes to cause color reaction. After the color development, the reaction was terminated by the addition of 1 N sulfuric acid at a concentration of 100 μl/well. The absorbance was measured at 450 nm and 595 nm using an absorption spectrometer. As a result, a polypeptide of SEQ ID NO: 266 was identified as a partial CAPRIN-1 sequence recognized by all of the anti-CAPRIN-1 antibodies human-chicken chimeric monoclonal antibody #1 and anti-CAPRIN-1 monoclonal antibodies #1 to #5. In the polypeptide of SEQ ID NO: 266, a peptide of SEQ ID NO: 267 was identified as a partial sequence recognized by the human-chicken chimeric monoclonal antibody #1 and the mouse monoclonal antibodies #3 and #4. In the polypeptide of SEQ ID NO: 266, a peptide of SEQ ID NO: 268 was identified as a partial sequence recognized by the mouse monoclonal antibodies #1, #2, and #5. […] Also, a polypeptide comprising the amino acid sequence of SEQ ID NO: 270 was identified as a partial CAPRIN-1 sequence recognized by all of the anti-CAPRIN-1 monoclonal antibodies #6, #7, and #8. […] In addition, a polypeptide comprising the amino acid sequence of SEQ ID NO: 272 was identified as a partial CAPRIN-1 sequence recognized by all of the anti-CAPRIN-1 monoclonal antibodies #9, #10, and #11. […] In addition, a polypeptide comprising the amino acid sequence of SEQ ID NO: 269 was identified as a partial CAPRIN-1 sequence recognized by the human-chicken chimeric monoclonal antibody #3.

[3] = target: T3, polypeptide of SEQ ID NO: 266 (human); assay: ELISA on immobilised synthetic CAPRIN-1 peptides
T3 peptide: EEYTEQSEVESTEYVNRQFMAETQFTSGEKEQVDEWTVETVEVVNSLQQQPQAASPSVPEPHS
Method: as §1, §2

[4] = target: T4, peptide of SEQ ID NO: 268 (human); assay: ELISA on immobilised synthetic CAPRIN-1 peptides
T4 peptide: FTSGEKEQVDEW
Method: as §1, §2

[5] = target: T1, CAPRIN-1 protein expressed on the cell …; assay: flow cytometry on Capan-2, MIAPaCa-2, PANC-1 and BxPC-3 cells, vs isotype control
Method: Next, four pancreatic cancer cell lines (Capan-2, MIAPaCa-2, PANC-1, and BxPC-3) confirmed to have CAPRIN-1 gene expression were examined for their expression of CAPRIN-1 protein on the cell surface. 10⁶ cells of each cell line were centrifuged in each 1.5-ml microcentrifuge tube. The cancer cell surface-reactive anti-CAPRIN-1 mouse monoclonal antibodies #1 to #22 prepared in Example 4 and the culture supernatant (100 μl) containing the anti-CAPRIN-1 mouse-chicken chimeric antibody #1, #2, or #3 prepared in the preceding paragraph (2) were separately added to the tubes and left standing for 1 hour on ice. After washing with PBS, the cells were suspended in FITC-labeled goat anti-mouse IgG antibodies (manufactured by Invitrogen Corp.) diluted 500-fold with PBS containing 0.1% FBS and left standing for 1 hour on ice. After washing with PBS, the fluorescence intensity was measured using FACSCalibur (Becton, Dickinson and Company). On the other hand, the same operation as above was performed using isotype control antibodies, instead of the anti-CAPRIN-1 mouse monoclonal antibodies #1 to #22 and the culture supernatant containing the mouse-chicken chimeric antibody #1, #2, or #3, to prepare a control. As a result, all the cells supplemented with any of the monoclonal antibodies #1 to #22 and the mouse-chicken chimeric antibodies #1, #2, and #3 had fluorescence intensity at least 20% stronger than that of the control. […] The above rate of enhancement in fluorescence intensity was indicated by the rate of increase in mean fluorescence intensity (MFI) in each cell line and calculated according to the following expression: […]

[6] = target: T5, peptide of SEQ ID NO: 267 (human); assay: ELISA on immobilised synthetic CAPRIN-1 peptides
T5 peptide: QQPQAASPSVPE
Method: as §1, §2

binding result [2]: binds
B1: human-chicken chimeric antibody #3 (antibody, human IgG1, kappa, V domains shown)
VH: AVTLDESGGGLQTPGGALSLVCKASGFTFSGYDMLWVRQAPGKGLEWVAGIGSTGGGTDYGAAVKGRATISRDNGQSTVRLQLNNLRAEDTATYYCAKVAGGCNSGYCRDSPGSIDAWGHGTEVIVSA
VL: AVTQQPASVSANPGETVKITCSGGGSRNYYGWYQQKSPGSVPVTVIYYDDQRPSNIPSRFSGALSGSTSTLTITGVQADDEAVYFCGSADSNTYEGSFGAGTTLTVLT
notes: also called human-chicken chimeric monoclonal antibody #3
cytotoxic activity (ADCC) against MIAPaCa-2 and Capan-2 [1]: ≥ 10%

binding result [3]: binds
binding result [4]: binds
rate of increase in mean fluorescence intensity [5]: ≥ 20%
B2: mouse monoclonal antibody #5 (antibody, V domains shown)
VH: DAELVKPGASVKISCKASGYTFTDHSIHWVQQKPEQGLEWIGYISPGNGNIKYNEKFKGKATLTADKSSSTAYMQLNSLTSEDSAVYFCKRSLGRGGPYYFDYWGQGTTVTVSS
VL: DIVLTQAAPSLPVTPGESVSISCRSSKSLLHSNGNTYLYWFLQRPGQSPQLLIYRMSNLASGVPDRFSGSGSGTAFTLRISRVEAEDVGVYYCMQHREYPVTFGSGPN
notes: Mouse hybridoma antibody; also called anti-CAPRIN-1 mouse monoclonal antibody #5
cytotoxic activity (ADCC) against MIAPaCa-2 and Capan-2 [1]: ≥ 10%

binding result [3]: binds
binding result [6]: binds
rate of increase in mean fluorescence intensity [5]: ≥ 20%
B3: mouse monoclonal antibody #4 (antibody, V domains shown)
VH: GAELVRSGASVKMSCKASGYSFTDYNMYWVKQTPGQGLEWIGYIYPGNGGTNYNQKFKGKATLTADTSSSTAYMQISSLTSEDSAVYFCARDYDDGGYAMDYWGQGTTVTVSS
VL: DIQMTQSPASLSASVGETVTITCRASGNIHNYLTWYQQKQGKSPQLLVYNAKTLADGVPSRFSGSGSGTQYSLKINRLQPEDFGSYYCQHFWNIPWTFGGGTKLNSR
notes: Mouse hybridoma antibody; also called anti-CAPRIN-1 mouse monoclonal antibody #4
cytotoxic activity (ADCC) against MIAPaCa-2 and Capan-2 [1]: ≥ 10%
